T1: rHuman Erythropoietin R/Fc Chimera, CF (R&D Systems Cat#963-ER) (human, UniProt P19235 25-250)
T1 construct: Bought recombinant protein; also called EPO R; EPO R/Fc; Fc part of the bought chimera not given
T1 sequence (looked up): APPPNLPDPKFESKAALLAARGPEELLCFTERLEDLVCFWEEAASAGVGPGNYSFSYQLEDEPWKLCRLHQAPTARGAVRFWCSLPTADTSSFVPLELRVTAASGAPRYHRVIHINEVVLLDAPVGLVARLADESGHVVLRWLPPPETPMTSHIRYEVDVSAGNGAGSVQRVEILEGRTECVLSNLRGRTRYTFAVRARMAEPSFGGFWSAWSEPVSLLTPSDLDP


How the values were obtained:
[1] = target: T2, Recombinant Human DLL4 (delta-like protein 4) (human, UniProt Q9NR61 27-529); assay: ECL (MSD) 96-well plate assay; plate coated with 15 µg/mL DLL4; Fab 0.004 µM
T2 construct: Bought recombinant protein (R&D Systems Cat#1506-D4/CF); also called rHuman DLL4; Delta-like 4

[2] = target: T2, Recombinant Human DLL4 (delta-like …); assay: ECL (MSD) 96-well plate assay; plate coated with 30 µg/mL DLL4; Fab 0.02 µM
[3] = target: T3, Recombinant Human DLL4 (R&D Systems Cat#1506-D4/CF) (human, UniProt Q9NR61 27-524); assay: ECL (MSD) binding assay, Fab on immobilized recombinant human DLL4
T3 construct: also called rHuman DLL4; delta-like protein 4

[4] = target: T4, rHuman EGF R/Fc Chimera, CF (R&D Systems Cat#344-ER) (human, UniProt P00533 25-645); assay: ECL multispot (MSD) binding assay, antigen spotted on plate, Fab 0.04 uM;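 note: purified Fab incubated 1 h at 20 °C on antigen spots, detected via TAG-labelled antibody, ECL read against each well's blank, with signal-to-blank of at least 4 scored as binder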
T4 construct: Bought recombinant protein; also called epidermal growth factor receptor; Fc part of the bought chimera not given

[5] = target: T5, rHuman ErbB2/Fc Chimera, CF (R&D Systems Cat#1129-ER) (human, UniProt P04626 23-652); assay: as above
T5 construct: Bought recombinant protein; also called human epidermal growth factor 2 receptor; Fc part of the bought chimera not given

[6] = target: T6, rHuman Notch-1/Fc Chimera, CF (R&D Systems Cat#3647-TK) (human, UniProt P46531 19-526); assay: as above
T6 construct: Bought recombinant protein; Fc part of the bought chimera not given

[7] = target: T1, rHuman Erythropoietin R/Fc Chimera, CF …; assay: as above
[8] = target: T7, rHuman CD44/Fc Chimera, CF (R&D Systems Cat#3660-CD) (human, UniProt P16070 21-220); assay: as above
T7 construct: Bought recombinant protein; Fc part of the bought chimera not given

[9] = target: T8, Recombinant Human DLL4 (R&D Systems Cat#1506-D4/CF) (human, UniProt Q9NR61 27-524); assay: as above
T8 construct: Bought recombinant protein; also called delta-like protein 4; rHuman DLL4

[10] = target: T9, rHuman P-Cadherin/Fc Chimera, CF (R&D Systems Cat#861-PC) (human, UniProt P22223 108-654); assay: as above
T9 construct: Bought recombinant protein; Fc part of the bought chimera not given

Signal/Noise [1]	Signal/Noise [2]	ECL signal [3]	ECL signal [4]	ECL signal [5]	ECL signal [6]	ECL signal [7]	ECL signal [8]	ECL signal [9]	ECL signal [10]	Binder
		6420								Fab VH5-51_IGHD5-18*01>3_IGHJ4*01 G100K/G104T/S28R (KT S28R) & V3-4_IGLJ1*01 (Fab, V domains shown, Tested as Fab; CH1 with His6/Flag tags (plasmid A) and lambda CL (plasmid E) come from the expression vectors) VH: EVQLVQSGAEVKKPGESLKISCKGSGYRFTSYWIGWVRQMPGKGLEWMGIIYPGDSDTRYSPSFQGQVTISADKSISTAYLQWSSLKASDTAMYYCARRKYSYTYDYFDYWGQGTLVTVSS VL: QTVVTQEPSFSVSPGGTVTLTCGLSSGSVSTSYYPSWYQQTPGQAPRTLIYSTNTRSSGVPDRFSGSILGNKAALTITGAQADDESDYYCVLYMGSGISYVFGTGTKVTVL
			956	1320	674	693	670	18200	500	Fab VH5-51_IGHD5-18*01>3_IGHJ4*01 G100K/G104T (H:KT) & V3-4_IGLJ1*01 S99A (Fab, V domains shown, Fab; Expressed from Plasmid A (CH1, His6 and Flag tags) and Plasmid E (lambda CL); also called KT & S99A) VH: EVQLVQSGAEVKKPGESLKISCKGSGYSFTSYWIGWVRQMPGKGLEWMGIIYPGDSDTRYSPSFQGQVTISADKSISTAYLQWSSLKASDTAMYYCARRKYSYTYDYFDYWGQGTLVTVSS VL: QTVVTQEPSFSVSPGGTVTLTCGLSSGSVSTSYYPSWYQQTPGQAPRTLIYSTNTRSSGVPDRFSGSILGNKAALTITGAQADDESDYYCVLYMGSGIAYVFGTGTKVTVL
					725	602	700	8110	497	Fab VH5-51_IGHD5-18*01>3_IGHJ4*01 G100K/G104T (H:KT) & V3-4_IGLJ1*01 Y93A (Fab, V domains shown, Fab; Expressed from Plasmid A (CH1, His6 and Flag tags) and Plasmid E (lambda CL); also called KT & Y93A) VH: EVQLVQSGAEVKKPGESLKISCKGSGYSFTSYWIGWVRQMPGKGLEWMGIIYPGDSDTRYSPSFQGQVTISADKSISTAYLQWSSLKASDTAMYYCARRKYSYTYDYFDYWGQGTLVTVSS VL: QTVVTQEPSFSVSPGGTVTLTCGLSSGSVSTSYYPSWYQQTPGQAPRTLIYSTNTRSSGVPDRFSGSILGNKAALTITGAQADDESDYYCVLAMGSGISYVFGTGTKVTVL

More lines, now with the values behind:

Binder	Signal/Noise [1]	Signal/Noise [2]	ECL signal [3]	ECL signal [4]	ECL signal [5]	ECL signal [6]	ECL signal [7]	ECL signal [8]	ECL signal [9]	ECL signal [10]
Fab VH1-46_IGHD6-6*01_IGHJ1*01 S104C & L6_IGKJ1*01 (Fab, V domains shown, Fab; The VH was cloned into Plasmid A (CH1, His6 and Flag tags) and the kappa VL into Plasmid C (kappa CL); expressed in E. coli) VH: QVQLVQSGAEVKKPGASVKVSCKASGYTFTSYYMHWVRQAPGQGLEWMGIINPSGGSTSYAQKFQGRVTMTRDTSTSTVYMELSSLRSEDTAVYYCAREEYSSCSAEYFQHWGQGTLVTVSS VL: not shown	8.4	9.9								
Fab VH1-46_IGHD6-6*01_IGHJ1*01 S104R & L6_IGKJ1*01 (Fab, V domains shown, Fab; The VH was cloned into Plasmid A (CH1, His6 and Flag tags) and the kappa VL into Plasmid C (kappa CL); expressed in E. coli) VH: QVQLVQSGAEVKKPGASVKVSCKASGYTFTSYYMHWVRQAPGQGLEWMGIINPSGGSTSYAQKFQGRVTMTRDTSTSTVYMELSSLRSEDTAVYYCAREEYSSRSAEYFQHWGQGTLVTVSS VL: not shown	28.6	23.4								
Fab VH5-51_IGHD5-18*01>3_IGHJ4*01 G100K/G104T (H:KT) & V3-4_IGLJ1*01 M94A (Fab, V domains shown, Fab; Expressed from Plasmid A (CH1, His6 and Flag tags) and Plasmid E (lambda CL); also called KT & M94A) VH: EVQLVQSGAEVKKPGESLKISCKGSGYSFTSYWIGWVRQMPGKGLEWMGIIYPGDSDTRYSPSFQGQVTISADKSISTAYLQWSSLKASDTAMYYCARRKYSYTYDYFDYWGQGTLVTVSS VL: QTVVTQEPSFSVSPGGTVTLTCGLSSGSVSTSYYPSWYQQTPGQAPRTLIYSTNTRSSGVPDRFSGSILGNKAALTITGAQADDESDYYCVLYAGSGISYVFGTGTKVTVL				1130	1200	574	614	633	35300	472
Fab VH5-51_IGHD5-18*01>3_IGHJ4*01 G100K/G104T (H:KT) & V3-4_IGLJ1*01 S96A (Fab, V domains shown, Fab; Expressed from Plasmid A (CH1, His6 and Flag tags) and Plasmid E (lambda CL); also called KT & S96A) VH: EVQLVQSGAEVKKPGESLKISCKGSGYSFTSYWIGWVRQMPGKGLEWMGIIYPGDSDTRYSPSFQGQVTISADKSISTAYLQWSSLKASDTAMYYCARRKYSYTYDYFDYWGQGTLVTVSS VL: QTVVTQEPSFSVSPGGTVTLTCGLSSGSVSTSYYPSWYQQTPGQAPRTLIYSTNTRSSGVPDRFSGSILGNKAALTITGAQADDESDYYCVLYMGAGISYVFGTGTKVTVL				1000	1280				32300	491
